Data on nine compounds can be found in article PMC9366794 (ACS Omega, 2022).

Ends that are not written are not given here.

Experiment [1] has as its target mouse melanocortin-5 receptor (mouse) (UniProt P41149).
The target of experiment [2] is mouse melanocortin-1 receptor (mouse) (UniProt Q01727).
In experiment [3] the target is mouse melanocortin-3 receptor (mouse) (UniProt P33033).
Experiment [4] addresses mouse melanocortin-4 receptor (mouse) (UniProt P56450).
The subject of a further experiment is MC4R KO mice. The settings on record: MC4R KO mice (intact MC3R); cited from earlier work.
Another experiment concerns male mice. Conditions: icv, 5 μg, at 4, 6, and 24 h; cited from earlier work.
In experiment [5] the test system is wildtype, MC4R KO, and MC3R KO mice. Conditions: significant out to at least 7 days post-administration; cited from earlier work.

Chain of UniProt P41149 (P41149 whole entry): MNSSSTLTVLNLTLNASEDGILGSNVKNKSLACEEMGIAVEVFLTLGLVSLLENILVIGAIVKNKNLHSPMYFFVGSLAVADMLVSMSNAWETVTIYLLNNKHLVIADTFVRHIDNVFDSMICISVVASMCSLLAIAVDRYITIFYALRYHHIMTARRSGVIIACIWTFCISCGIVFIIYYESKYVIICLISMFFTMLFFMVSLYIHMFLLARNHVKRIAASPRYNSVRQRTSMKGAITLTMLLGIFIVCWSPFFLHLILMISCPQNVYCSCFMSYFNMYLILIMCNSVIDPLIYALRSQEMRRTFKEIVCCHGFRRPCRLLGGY
Chain of UniProt P33033 (P33033 whole entry): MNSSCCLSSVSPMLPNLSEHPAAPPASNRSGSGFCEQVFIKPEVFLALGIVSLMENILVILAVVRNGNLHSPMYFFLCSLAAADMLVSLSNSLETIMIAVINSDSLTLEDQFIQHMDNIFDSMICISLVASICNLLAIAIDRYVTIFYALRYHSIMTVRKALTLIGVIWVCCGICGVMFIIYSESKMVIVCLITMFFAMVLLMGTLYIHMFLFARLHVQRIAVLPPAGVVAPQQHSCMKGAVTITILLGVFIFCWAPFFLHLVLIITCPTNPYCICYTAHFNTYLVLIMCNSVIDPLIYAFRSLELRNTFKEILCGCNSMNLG
Chain of UniProt Q01727 (Q01727 whole entry): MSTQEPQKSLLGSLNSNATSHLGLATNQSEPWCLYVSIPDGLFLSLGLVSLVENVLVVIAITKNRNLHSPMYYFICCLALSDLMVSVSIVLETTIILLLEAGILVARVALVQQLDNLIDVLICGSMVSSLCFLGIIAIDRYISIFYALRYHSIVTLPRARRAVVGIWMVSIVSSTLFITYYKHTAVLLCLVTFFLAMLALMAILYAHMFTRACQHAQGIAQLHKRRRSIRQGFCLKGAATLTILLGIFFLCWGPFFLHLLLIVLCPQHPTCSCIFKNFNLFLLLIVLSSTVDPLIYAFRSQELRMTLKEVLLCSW
Chain of UniProt P56450 (P56450 whole entry): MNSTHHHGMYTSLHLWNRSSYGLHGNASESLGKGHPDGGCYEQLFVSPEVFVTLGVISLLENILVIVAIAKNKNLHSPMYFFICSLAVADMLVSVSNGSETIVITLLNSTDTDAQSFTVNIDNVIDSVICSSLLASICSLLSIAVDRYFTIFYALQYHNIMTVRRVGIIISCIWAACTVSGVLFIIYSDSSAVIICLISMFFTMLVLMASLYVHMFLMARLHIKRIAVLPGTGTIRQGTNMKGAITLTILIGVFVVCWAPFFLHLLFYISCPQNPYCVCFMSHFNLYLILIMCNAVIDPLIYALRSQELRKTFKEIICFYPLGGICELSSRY

NDP-MSH (peptide) showed an agonist EC50, cAMP AlphaScreen, HEK293 cells stably expressing mMC5R in experiment [1] of 0.26 nM. Moreover, in experiment [2], the agonist EC50, cAMP AlphaScreen, HEK293 cells stably expressing mMC1R was determined as 0.013 nM. The same compound gave an agonist EC50, cAMP AlphaScreen, HEK293 cells stably expressing mMC3R in experiment [3] of 0.16 nM. The same compound registered an agonist EC50, cAMP AlphaScreen, HEK293 cells stably expressing mMC4R in experiment [4] of 0.68 nM.
The compound Ac-Arg-Arg-(pI)DPhe-Tic-NH2 (peptide) gave an agonist EC50, cAMP AlphaScreen, HEK293 cells stably expressing mMC5R in experiment [1] of 7 nM. The compound further gave an agonist EC50, cAMP AlphaScreen, HEK293 cells stably expressing mMC1R in experiment [2] of 0.18 nM. In experiment [3], this compound returned an agonist EC50, cAMP AlphaScreen, HEK293 cells stably expressing mMC3R of 10 nM.
In the case of Ac-Arg-Arg-(pI)DPhe-Wrf-NH2 (peptide), in experiment [1], the agonist EC50, cAMP AlphaScreen, HEK293 cells stably expressing mMC5R came to 240 nM. Besides, in experiment [2], the agonist EC50, cAMP AlphaScreen, HEK293 cells stably expressing mMC1R is 380 nM. In addition, in experiment [3], the agonist EC50, cAMP AlphaScreen, HEK293 cells stably expressing mMC3R turned out to be 570 nM.
As to Ac-His-DPhe-Arg-Trp-NH2, the “food intake in MC4R KO mice” value with MC4R KO mice was “decrease in food intake”.
As to MTII, the “food intake in MC4R KO mice” value with MC4R KO mice is reported as “decrease in food intake”.
Consider `CC(=O)N[C@@H](CCCNC(=N)N)C(=O)N[C@@H](CCCNC(=N)N)C(=O)N[C@H](Cc1ccc(I)cc1)C(=O)N1Cc2ccccc2C[C@H]1C(N)=O` [compound 1, Ac-Arg-Arg-(pI)DPhe-Tic-NH2], for which, in the experiment on male mice, the “food intake versus artificial cerebrospinal fluid vehicle” value is listed as “statistically significant increase in food intake”.
In the case of Ac-Arg-Arg-wsf-Tic-NH2 (peptide), the agonist EC50, cAMP AlphaScreen, HEK293 cells stably expressing mMC5R in experiment [1] was 350 nM.
In experiment [1], Ac-Arg-Arg-(pI)DPhe-wsf-NH2 (peptide) returned an agonist EC50, cAMP AlphaScreen, HEK293 cells stably expressing mMC5R of 650 nM. Further, the agonist EC50, cAMP AlphaScreen, HEK293 cells stably expressing mMC1R in experiment [2] was found to be 210 nM.
“AGRP: naturally occurring MC3R/MC4R antagonist agouti-related protein (SSRRCVRLHESCLGQQVPCCDPCATCYCRFFNAFCYCRKLGTAMNPCSRT; ends and bridges not checked; cysteine pairing not given here; UniProt O00253 83-132, looked up)”: the “food intake compared to saline injection” value in experiment [5] is “dose-dependent increase in food intake”.
